Measurements taken from patent publication US20220403048A1 (CANCER RESEARCH TECHNOLOGY, published 2022).
Positions count from the first letter of the chain named.

Tests used:
[1] = target: T1, biotinylated recombinant human trimeric ARG1 enzyme (Avi-huARG1-His10) (human, UniProt P05089 1-322, biotinylated in HTRF and streptavidin BLI assays); test: BLI (OctetRED), biotinylated ARG1 on streptavidin tip
T1 construct: also called Human ARG1; recombinant ARG1
T1 sequence: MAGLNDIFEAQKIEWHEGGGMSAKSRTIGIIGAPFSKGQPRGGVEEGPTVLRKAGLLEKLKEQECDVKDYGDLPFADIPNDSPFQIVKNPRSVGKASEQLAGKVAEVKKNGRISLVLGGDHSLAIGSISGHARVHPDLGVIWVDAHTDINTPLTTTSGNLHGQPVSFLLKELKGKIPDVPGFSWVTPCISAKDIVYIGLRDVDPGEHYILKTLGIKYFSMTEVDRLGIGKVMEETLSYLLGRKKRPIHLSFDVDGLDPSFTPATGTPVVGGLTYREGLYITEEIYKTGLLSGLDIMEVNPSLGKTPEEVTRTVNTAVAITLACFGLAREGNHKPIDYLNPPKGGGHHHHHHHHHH
Protocol: (§1) The affinity of binding between the Fab of C0020187 and human ARG2, cynomolgus ARG2 and human ARG1 was estimated using assays in which the biotinylated ARG antigen was captured on a streptavidin sensor tip. A fresh sensor tip was used for each measurement and no regeneration was used. A series of dilutions of the C0020187 Fab (3.25-240 nM) were individually placed in contact with the ligand surface for a sufficient amount of time to observe sensorgrams that could be fitted to an appropriate binding model with confidence (typically 5 minutes), followed by an appropriate length of dissociation time (typically 10 minutes). Blank reference (0 nM Fab) data were subtracted from each dataset to reduce the impact of any buffer artefacts or non-specific binding effects. An appropriate binding model was then fitted simultaneously to the data from each analyte titration using the Octet Evaluation software.

[2] = target: T2, biotinylated recombinant human trimeric ARG2 enzyme (Avi-huARG2-His10) (human, UniProt P78540 23-354, biotinylated); test: BLI (OctetRED), biotinylated ARG on streptavidin tip, Fab as analyte, 1:1 fit
T2 construct: also called avi-Arg2-His10; bio-ARG2
T2 chain: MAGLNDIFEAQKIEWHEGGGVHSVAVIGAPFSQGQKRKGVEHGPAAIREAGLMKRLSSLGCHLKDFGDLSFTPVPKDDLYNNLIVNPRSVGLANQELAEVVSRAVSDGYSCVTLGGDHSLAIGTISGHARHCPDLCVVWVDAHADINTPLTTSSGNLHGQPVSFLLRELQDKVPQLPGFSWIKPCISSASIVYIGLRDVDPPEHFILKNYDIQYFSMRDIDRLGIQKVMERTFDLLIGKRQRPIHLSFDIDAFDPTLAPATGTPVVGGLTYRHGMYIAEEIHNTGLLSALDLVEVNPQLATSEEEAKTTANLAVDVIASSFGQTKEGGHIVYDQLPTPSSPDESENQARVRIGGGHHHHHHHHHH
Protocol: (§2) An Octet Kinetics Buffer (PBS containing 0.01% BSA and 0.002% Tween20) is typically used as the diluent buffer for the analyte samples and as the flow buffer during the dissociation phase. The experimental data is recorded over time as shift in interference pattern (nm) over time, which is directly proportional to the optical thickness at the biosensor tip, which in turn is an approximate measure of the mass of analyte bound. The proprietary Octet Data Analysis software package can then be used to process data and fit binding models to the data sets. Returned association (kₐ, M⁻¹ s⁻¹) and dissociation (kd, s⁻¹) rate constants allow calculation of dissociation (KD, M) affinity constants.
as §1
(§3) Example results for C0020187 are shown in Table 9, showing the association rate constants (kₐ), dissociation rate constants (kd) and dissociation constants (KD). These parameters were derived from a 1:1 binding fit to the data.

[3] = target: T3, biotinylated recombinant cynomolgus monkey trimeric ARG2 enzyme (Avi-cynoARG2-His10) (cynomolgus monkey, UniProt P78540 23-354 (human entry), biotinylated); test: as above
T3 construct: also called cynomolgus ARG2
T3 chain: T2 chain with A189P, R231Q, H273E, K325R, D333G
Protocol: as §2, §1, §3

B1: C0020187 Fab (Fab, V domains shown)
VH: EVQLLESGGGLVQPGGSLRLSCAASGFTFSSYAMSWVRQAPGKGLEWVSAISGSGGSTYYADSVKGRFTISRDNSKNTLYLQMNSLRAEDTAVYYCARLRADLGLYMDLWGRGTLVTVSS
VL: QSVLTQPPSVSAAPGQKVTISCSGSSSNIGNHYVSWYQQLPGTAPKLLIYDNSERPSGIPDRFSGSKSGTSATLGITGLQTGDEADYYCGTWDSSLSALVFGGGTKLTVL
notes: Human Fab (CH1 and part of the hinge; light chain constant domain); also called Fab of C0020187
Question: Does B1 bind [1]?
Answer: Result: no binding (tested: 3.25-240 nM Fab)

Question: What about the Kd [2] of the same binder?
Answer: The Kd was 8.35 nM.

Question: What about the koff [2] of the same binder?
Answer: The koff was 0.000577 s⁻¹.

Question: And the kon [2]?
Answer: Its kon is 69200 M⁻¹ s⁻¹.

Question: What about the Kd [3] of the same binder?
Answer: Its Kd is 6.26 nM.

Question: What about the koff [3] of the same binder?
Answer: Its koff is 0.000631 s⁻¹.

Question: And the kon [3]?
Answer: Its kon is 101000 M⁻¹ s⁻¹.
